Data as given in patent publication US20090131317A1, “COMPOUNDS AND PEPTIDES THAT BIND THE TRAIL RECEPTOR” (AFFYMAX, INC., priority 2007, published 2009).
Several values for one entry are separate records, joined by “and”; a condition that tells them apart may be missing. Equal values may be shown once. Numbered stars: 1 amine (or outer) side, 2 acyl side, 3 side chain; on linkers, the order of the positions; unused ones are H or OH. Bridge positions count the residues as written; N and C are the ends. Peptide text beside a SMILES is read from it. I, II: the chains in the order shown. Diglycolyl = O=C(COCC(=O)[*:2])[*:1]; DIG = diglycolic acid linker

What follows are molecules tested against T1, Recombinant human TRAIL R2-Fc fusion protein (R&D Systems) (human, UniProt O14763 52-182, limits assumed) (assay: AlphaQuest competition: displaces biotinylated TRAIL ligand from human TRAIL R2-Fc). Conditions: not given.
T1 construct: Bought from R&D Systems; held on protein A-coated acceptor beads in the AlphaQuest/AlphaScreen assay; also called TRAIL R2 receptor; R2 receptor; not shown: Fc part of the bought fusion protein
Procedure: The plates are sealed with adhesive sealing film and covered with aluminum foil, centrifuged at 600 rpm for 30 seconds and incubated overnight in the dark. […] The raw data are analyzed using GraphPad Prism® software (La Jolla, Calif.) to calculate IC₅₀ values from a 4-parameter logistic equation.

IC50 [nM] | Molecule
1200 to 2300 | Ac-WDCLDRPGRRQCVK-NH2 (disulfide 3-12 (inferred); also: DIG linker moiety conjugated, site not given here) [peptide monomer based on the amino acid sequence of SEQ ID NO: 22 conjugated to a DIG linker moiety]
≥ 100000 | Ac-DCLDNRIGRRQCVKL-NH2 (disulfide 2-12 (inferred)) [peptide monomer based on the amino acid sequence of SEQ ID NO: 25]
~80 | Ac-WDCLDNRIGRRQCVK-NH2 (disulfide 3-13 (inferred)) [peptide monomer based on the amino acid sequence of SEQ ID NO: 28]
~303 | Ac-GGSWDCLDNRIGRRQCVKL-NH2 (disulfide 6-16 (inferred)) [peptide monomer based on the amino acid sequence of SEQ ID NO: 20]
6.2 | Ac-WDCLDRPGRRQCVK-NH2 (disulfide 3-12 (inferred); also: homodimer via diglycolic acid (DIG) linker, site not given here) [peptide homodimer based on the monomer amino acid sequence of SEQ ID NO: 22, DIG linker]

These molecules were tested against T2, human TRAIL R2 (Homo sapiens, UniProt O14763) (assay: AlphaQuest TRAIL R2 receptor binding competition assay (AlphaScreen, biotinylated TRAIL ligand vs TRAIL R2-Fc)). Conditions: competition with biotinylated TRAIL ligand; single values and ranges over assays; read-out: binding activity (IC50).
T2 construct: purchased R&D Systems, Minneapolis, Minn
From the text: Laser excitation (680 nm) of a photosensitizer in the donor bead generates singlet state oxygen molecules, which react with a chemiluminescer in the acceptor bead to generate a detectable light signal (520-620 nm). Because the singlet O2 molecules have an extremely short half-life (i.e., t ½), a signal is generated only when the donor and acceptor beads are brought into close proximity, by TRAIL binding to the R2 receptor. The presence of unlabeled test peptide that competes with TRAIL for binding to the R2 receptor will prevent this binding, resulting in a measurable decrease in light emission.
Recombinant human TRAIL R2-Fc fusion protein (R&D Systems, Minneapolis, Minn.) is diluted in AlphaQuest® buffer to a concentration of 600 pM, pre-mixed with 1.9 μL Protein A-coated acceptor beads and 1.9 μL streptavidin-coated donor beads (Perkin-Elmer®, Waltham, Mass.), then 2 μL is added to each well of the assay plate. […] The plates are sealed with adhesive sealing film and covered with aluminum foil, centrifuged at 600 rpm for 30 seconds and incubated overnight in the dark. […] The raw data are analyzed using GraphPad Prism® software (La Jolla, Calif.) to calculate IC50 values from a 4-parameter logistic equation.

IC50 | Molecule
200 to 5700 nM | CC[C@H](C)[C@@H]1NC(=O)[C@H](CCCNC(=N)N)NC(=O)[C@H](CC(N)=O)NC(=O)[C@H](CC(=O)O)NC(=O)[C@H](CC(C)C)NC(=O)[C@@H](NC(=O)[C@H](CC(=O)O)NC(=O)[C@H](Cc2c[nH]c3ccccc23)NC(C)=O)CSSC[C@@H](C(=O)N[C@H](C(=O)N[C@@H](CCCNC(=N)N)C(N)=O)C(C)C)NC(=O)[C@H](CCC(N)=O)NC(=O)[C@H](CCCNC(=N)N)NC(=O)[C@H](CCCCN)NC(=O)CNC1=O [SEQ ID NO: 33 monomer] (Ac-WDCLDNRIGKRQCVR-NH2; disulfide 3-13)
≥ 100000 nM | CC[C@H](C)[C@@H]1NC(=O)[C@H](CCCNC(=N)N)NC(=O)[C@H](CC(N)=O)NC(=O)[C@H](CC(=O)O)NC(=O)[C@H](CC(C)C)NC(=O)[C@@H](NC(=O)[C@H](CC(=O)O)NC(C)=O)CSSC[C@@H](C(=O)N[C@H](C(=O)N[C@@H](CCCCN)C(=O)N[C@@H](CC(C)C)C(N)=O)C(C)C)NC(=O)[C@H](CCC(N)=O)NC(=O)[C@H](CCCNC(=N)N)NC(=O)[C@H](CCCNC(=N)N)NC(=O)CNC1=O [SEQ ID NO: 25 monomer] (Ac-DCLDNRIGRRQCVKL-NH2; disulfide 2-12)
3550 to 10700 nM | CC(=O)N[C@@H](Cc1c[nH]c2ccccc12)C(=O)N[C@@H](CC(=O)O)C(=O)N[C@H]1CSSC[C@@H](C(=O)N[C@H](C(=O)N[C@@H](CCCCN)C(N)=O)C(C)C)NC(=O)[C@H](CCC(N)=O)NC(=O)[C@H](CCCNC(=N)N)NC(=O)[C@H](CCCNC(=N)N)NC(=O)CNC(=O)[C@@H]2CCCN2C(=O)[C@H](CCCNC(=N)N)NC(=O)[C@H](CC(=O)O)NC(=O)[C@H](CC(C)C)NC1=O [SEQ ID NO: 22 monomer] (Ac-WDCLDRPGRRQCVK-NH2; disulfide 3-12)
0.025 to 0.092 nM and ~0.061 nM | CC[C@H](C)[C@@H]1NC(=O)[C@H](CCCNC(=N)N)NC(=O)[C@H](CC(N)=O)NC(=O)[C@H](CC(=O)O)NC(=O)[C@H](CC(C)C)NC(=O)[C@@H](NC(=O)[C@H](CC(=O)O)NC(=O)[C@H](Cc2c[nH]c3ccccc23)NC(C)=O)CSSC[C@@H](C(=O)N[C@H](C(=O)N[C@@H](CCCNC(=N)N)C(N)=O)C(C)C)NC(=O)[C@H](CCC(N)=O)NC(=O)[C@H](CCCNC(=N)N)NC(=O)[C@H](CCCCNC(=O)COCC(=O)NCCCC[C@@H]2NC(=O)CNC(=O)[C@H]([C@@H](C)CC)NC(=O)[C@H](CCCNC(=N)N)NC(=O)[C@H](CC(N)=O)NC(=O)[C@H](CC(=O)O)NC(=O)[C@H](CC(C)C)NC(=O)[C@@H](NC(=O)[C@H](CC(=O)O)NC(=O)[C@H](Cc3c[nH]c4ccccc34)NC(C)=O)CSSC[C@@H](C(=O)N[C@H](C(=O)N[C@@H](CCCNC(=N)N)C(N)=O)C(C)C)NC(=O)[C@H](CCC(N)=O)NC(=O)[C@H](CCCNC(=N)N)NC2=O)NC(=O)CNC1=O [SEQ ID NO: 33 homodimer] (I: Ac-WDCLDNRIGKRQCVR-NH2 / II: Ac-WDCLDNRIGKRQCVR-NH2; disulfide I:3-I:13, II:3-II:13; linker I:10-II:10 via Diglycolyl)

Each molecule was assayed on Jurkat cells (assay: not given). Conditions: not given.
Type: cell-based
Procedure: The apoptotic activity of test peptides is measured using a Jurkat proliferation assay.
Jurkat cells are obtained from the American Type Culture Collection (ATCC, Manassas, Va.) and are maintained in RPMI-1640 medium supplemented with 10% FBS, 100 U/mL penicillin, and 100 […] (Growth Medium). […] Cells are resuspended at a density of 1×10^6 cells/mL in Growth Medium, and 50 μl cells is added to each well of the assay plates. The plates are incubated in a 37° C., 5% CO2 incubator for 24-48 hours. Proliferation is assessed by adding 10 μL of MTT stock solution (ATCC, Manassas, Va.) to the wells. The plates are incubated in a 37° C., 5% CO2 incubator for another 2-4 hours, followed by the addition of 100 μL of 20% SDS with 0.01 N HCl. After incubation overnight in a 37° C., 5% CO2 incubator, the plates are quantified by reading the optical density at a wavelength of 595 nm (OD595) in a SpectraMax® M5 microplate reader (Molecular Devices, Sunnyvale, Calif.). The data are analyzed using GraphPad Prism® software (La Jolla, Calif.) to calculate IC50 values from a 4-parameter logistic equation.

EC50 [nM] | Molecule
1300 to 1660 | CC(=O)N[C@@H](Cc1c[nH]c2ccccc12)C(=O)N[C@@H](CC(=O)O)C(=O)N[C@H]1CSSC[C@@H](C(=O)N[C@H](C(=O)N[C@@H](CCCNC(=N)N)C(=O)N[C@@H](CC(C)C)C(=O)N[C@@H](CCC(=O)O)C(=O)N[C@@H](CCCCNC(=O)COCC(=O)NCCCC[C@H](NC(=O)[C@H](CCC(=O)O)NC(=O)[C@H](CC(C)C)NC(=O)[C@H](CCCNC(=N)N)NC(=O)[C@@H](NC(=O)[C@@H]2CSSC[C@H](NC(=O)[C@H](CC(=O)O)NC(=O)[C@H](Cc3c[nH]c4ccccc34)NC(C)=O)C(=O)N[C@@H](CC(C)C)C(=O)N[C@@H](C(C)C)C(=O)N[C@@H](CC(=O)O)C(=O)N[C@@H](CCCNC(=N)N)C(=O)N3CCC[C@H]3C(=O)NCC(=O)N[C@@H](CCCNC(=N)N)C(=O)N[C@@H](CCCNC(=N)N)C(=O)N[C@@H](CCC(N)=O)C(=O)N2)C(C)C)C(N)=O)C(N)=O)C(C)C)NC(=O)[C@H](CCC(N)=O)NC(=O)[C@H](CCCNC(=N)N)NC(=O)[C@H](CCCNC(=N)N)NC(=O)CNC(=O)[C@@H]2CCCN2C(=O)[C@H](CCCNC(=N)N)NC(=O)[C@H](CC(=O)O)NC(=O)[C@H](C(C)C)NC(=O)[C@H](CC(C)C)NC1=O [SEQ ID NO: 29 homodimer] (I: Ac-WDCLVDRPGRRQCVRLEK-NH2 / II: Ac-WDCLVDRPGRRQCVRLEK-NH2; disulfide I:3-I:13, II:3-II:13 (inferred); linker I:18-II:18 via Diglycolyl (inferred))

What follows are molecules tested against TRAIL R2 receptor on HCT-116 or Jurkat cells (UniProt O14763 56-440, limits assumed) (assay: cell-based or functional assay). Conditions: not given.

EC50, Jurkat proliferation assay (apoptosis, MTT) [nM] | EC50, apoptotic activity in HCT-116 proliferation assay (MTT) [nM] | Molecule
1300 to 1660 |  | Ac-WDCLVDRPGRRQCVRLEK-NH2 (disulfide 3-13 (inferred); also: homodimer via diglycolic acid (DIG) linker, site not given here) [peptide homodimer based on the peptide monomer amino acid sequence of SEQ ID NO: 29, DIG linker]
> 33000 |  | Ac-WDCLVDRPGRRQCVKLER-NH2 (disulfide 3-13 (inferred); also: homodimer via diglycolic acid (DIG) linker, site not given here) [peptide homodimer based on the peptide monomer amino acid sequence of SEQ ID NO: 31, DIG linker]
 | ~1620 | Ac-WDCLDNRIGRRQCVK(DIG)L-NH2 (disulfide 3-13; also: homodimer joined through DIG linker) [peptide homodimer based on the monomer amino acid sequence of SEQ ID NO: 19, DIG linker]
1400 to 4020 |  | Ac-WDCLDNRIGRRQCVKL-NH2 (disulfide 3-13; also: homodimer via IPA linker, site not given here) [peptide homodimer based on the peptide monomer amino acid sequence of SEQ ID NO: 19, IPA linker]
 | ~480 | Ac-WDCLDNRIGRRQCVKL-NH2 (disulfide 3-13; also: homotrimer via TSAT linker, site not given here) [peptide homotrimer based on the peptide monomer sequence of SEQ ID NO: 19, TSAT linker]
611 to 1090 |  | Ac-WDCLVDRPGRRQCVRLERK-NH2 (disulfide 3-13 (inferred); also: homodimer via diglycolic acid (DIG) linker, site not given here) [peptide homodimer based on the peptide monomer amino acid sequence of SEQ ID NO: 30, DIG linker]
2000 to 4410 |  | Ac-WDCLDNRIGRRQCVKL-NH2 (disulfide 3-13; also: homodimer via DOD linker, site not given here) [peptide homodimer based on the peptide monomer amino acid sequence of SEQ ID NO: 19, DOD linker]
